Broadly, the IC50 is the concentration that inhibits the measured activity by half. A low value points to greater potency in that assay.

B1: cyclo[Mpa-Tyr-Lys(iPr)-(D-Arg)-2Nal-Gly-Cys]-(D-Arg)-Gly-(D-Phe)-Gly-NH2 (peptide)
peptide: [Mpa]YK(iPr)[dR][2Nal]GC[dR]G[dF]G-NH2
modifications: disulfide 1-7; also: acetate salt
notes: also called MLB-004
B2: Phenylacetyl-cyclo[hCys-Tyr-Lys(iPr)-(D-Arg)-2Nal-Gly-Cys]-Lys(iPr)-Gly-NH2 (peptide)
peptide: PhAc-[hCys]YK(iPr)[dR][2Nal]GCK(iPr)G-NH2
modifications: disulfide 1-7; also: acetate salt
notes: also called MLB-025
B3: cyclo[Mpa-Tyr-Lys(iPr)-(D-Arg)-2Nal-Gly-Cys]-Arg-Gly-(D-Phe)-Gly-NH2 (peptide)
peptide: [Mpa]YK(iPr)[dR][2Nal]GCRG[dF]G-NH2
modifications: disulfide 1-7; also: acetate salt
notes: Acetate salt; also called MLB-002
B4: cyclo[Mpa-Tyr-Arg-(D-Arg)-2Nal-Gly-Cys]-Arg-Gly-(D-Phe)-Gly-NH2 (peptide)
peptide: [Mpa]YR[dR][2Nal]GCRG[dF]G-NH2
modifications: disulfide 1-7; also: acetate salt
notes: Acetate salt; also called MLB-001
B5: cyclo[Mpa-Arg-Tyr-Arg-2Nal-Gly-Cys]-Arg-Gly-(D-Phe)-Gly-NH2 (peptide)
peptide: [Mpa]RYR[2Nal]GCRG[dF]G-NH2
modifications: disulfide 1-7; also: acetate salt
notes: Acetate salt; also called MLB-011
B6: Benzoyl-cyclo[hCys-Tyr-Lys(iPr)-(D-Arg)-2Nal-Gly-Cys]-Lys(iPr)-Gly-NH2 (peptide)
peptide: Bz-[hCys]YK(iPr)[dR][2Nal]GCK(iPr)G-NH2
modifications: disulfide 1-7; also: acetate salt
notes: Acetate salt; also called MLB-021
B7: Ac-cyclo[hCys-Tyr-Lys(iPr)-(D-Arg)-2Nal-Gly-Cys]-Lys(iPr)-Gly-NH2 (peptide)
peptide: Ac-[hCys]YK(iPr)[dR][2Nal]GCK(iPr)G-NH2
modifications: disulfide 1-7; also: acetate salt
notes: Acetate salt; also called MLB-010
B8: Ac-cyclo[hCys-Tyr-Lys(iPr)-(D-Arg)-2Nal-Gly-Cys]-Lys(iPr)-Gly-NH(Et) (peptide)
peptide: Ac-[hCys]YK(iPr)[dR][2Nal]GCK(iPr)G-NHEt
modifications: disulfide 1-7; also: acetate salt
notes: Acetate salt; also called MLB-026
B9: Benzoyl-cyclo[hCys-Tyr-Lys(iPr)-(D-Arg)-2Nal-Gly-Cys]-Lys(iPr)-Gly-NH(Et) (peptide)
peptide: Bz-[hCys]YK(iPr)[dR][2Nal]GCK(iPr)G-NHEt
modifications: disulfide 1-7; also: acetate salt
notes: Acetate salt; also called MLB-024
B10: cyclo[Mpa-Tyr-Lys(iPr)-(D-Arg)-2Nal-Gly-Cys]-Lys(iPr)-Gly-NH(Et) (peptide)
peptide: [Mpa]YK(iPr)[dR][2Nal]GCK(iPr)G-NHEt
modifications: disulfide 1-7; also: acetate salt
notes: Acetate salt; also called MLB-014
B11: MLB-033 (compound of Example 23; structure given only as drawing CHEM-US-00016) (peptide)
peptide: Ac-CYK(iPr)[dR][2Nal]GCK(iPr)G-NH2
modifications: linker 1-7 via 1,3‑bis(methylene)benzene; also: acetate salt
notes: Acetate salt
B12: cyclo[Mpa-Tyr-Lys(iPr)-(D-Arg)-2Nal-Gly-Cys]-Lys(iPr)-Lys(lauroyl)-NH(Et) (peptide)
peptide: [Mpa]YK(iPr)[dR][2Nal]GCK(iPr)K(Lauroyl)-NHEt
modifications: disulfide 1-7; also: acetate salt
notes: Acetate salt; also called MLB-028
B13: Benzoyl-cyclo[Cys-Tyr-Lys(iPr)-(D-Arg)-2Nal-Gly-hCys]-Lys(iPr)-Gly-NH2 (peptide)
peptide: Bz-CYK(iPr)[dR][2Nal]G[hCys]K(iPr)G-NH2
modifications: disulfide 1-7; also: acetate salt
notes: Acetate salt; also called MLB-022
B14: MLB-032 (compound of Example 22; structure given only as drawing CHEM-US-00015) (peptide)
peptide: Ac-CYK(iPr)[dR][2Nal]GCK(iPr)G-NH2
modifications: linker 1-7 via 1,2‑bis(methylene)benzene; also: acetate salt
notes: Acetate salt
B15: cyclo[Mpa-Tyr-Lys(iPr)-(D-Arg)-2Nal-Gly-Cys]-Lys(iPr)-Lys(Ac)-NH(Et) (peptide)
peptide: [Mpa]YK(iPr)[dR][2Nal]GCK(iPr)K(Ac)-NHEt
modifications: disulfide 1-7; also: acetate salt
notes: Acetate salt; also called MLB-027
B16: cyclo[Mpa-Tyr-Lys(iPr)-(D-Arg)-2Nal-Gly-Cys]-Lys(iPr)-Lys(palmitoyl)-NH(Et) (peptide)
peptide: [Mpa]YK(iPr)[dR][2Nal]GCK(iPr)K(Palmitoyl)-NHEt
modifications: disulfide 1-7; also: acetate salt
notes: Acetate salt; also called MLB-029
B17: MLB-030 (compound of Example 20; structure given only as drawing CHEM-US-00013) (peptide)
peptide: Bz-CYK(iPr)[dR][2Nal]GCK(iPr)G-NH2
modifications: linker 1-7 via 1,2‑bis(methylene)benzene; also: acetate salt
notes: Acetate salt
B18: Benzoyl-cyclo[Cys-Tyr-Lys(iPr)-(D-Arg)-2Nal-Gly-Cys]-Lys(iPr)-Gly-NH2 (peptide)
peptide: Bz-CYK(iPr)[dR][2Nal]GCK(iPr)G-NH2
modifications: disulfide 1-7; also: acetate salt
notes: Acetate salt; also called MLB-023

Bridge positions count the residues as written; N and C are the ends. Square brackets hold non-standard residues; d marks the D form. * marks the point of attachment. 2Nal = N[C@@H](Cc1ccc2ccccc2c1)C(=O)O; Lys(iPr) = CC(C)NCCCC[C@H](N)C(=O)O; Palmitoyl = CCCCCCCCCCCCCCCC(=O)*; Lauroyl = CCCCCCCCCCCC(=O)*; hCys = N[C@@H](CCS)C(=O)O; PhAc = O=C(Cc1ccccc1)*; Bz = O=C(c1ccccc1)*; Mpa = O=C(O)CCS; iPr = CC(C)* Where only a bound is given, the exact number is not on record here.

The target of this assay is T1, Human chemokine receptor CXCR4 (human, UniProt P61073 1-352).
T1 construct: whole, on cells; Membranes of Chem-1 cells expressing human CXCR4 (0.5 ug membrane protein per aliquot); also called C-X-C chemokine receptor type 4; fusin
T1 sequence (P61073 whole entry): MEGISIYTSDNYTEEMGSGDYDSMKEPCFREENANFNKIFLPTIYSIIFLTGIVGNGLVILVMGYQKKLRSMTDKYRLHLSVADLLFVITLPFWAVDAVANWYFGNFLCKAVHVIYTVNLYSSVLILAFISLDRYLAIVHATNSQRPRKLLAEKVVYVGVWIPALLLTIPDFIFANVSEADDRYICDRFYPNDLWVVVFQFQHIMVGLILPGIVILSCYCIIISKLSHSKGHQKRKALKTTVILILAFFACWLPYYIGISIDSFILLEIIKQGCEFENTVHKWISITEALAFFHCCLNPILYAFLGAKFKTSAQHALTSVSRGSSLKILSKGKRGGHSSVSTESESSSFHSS
The experiment in a line: displacement of [125I]SDF-1α (0.03 nM) from membranes of Chem-1 cells expressing human CXCR4. On the procedure: Human CXCR4/¹²⁵I-SDF-1α Binding Inhibition Assay: Human chemokine receptor CXCR4 expressed in Chem-1 cells were used in modified HEPES buffer pH 7.4. A 0.5 μg (Membrane protein may change from lot to lot, the concentration used were adjusted as necessary), aliquot was incubated with 0.03 nM [¹²⁵I]SDF-1α for 90 minutes at 25° C. Non-specific binding was estimated in the presence of 30 nM SDF-la. Membranes were filtered and washed, filters were then counted to determine [¹²⁵I]SDF-1α specifically bound. Compounds were screened starting at 10 μM with 11-point dilutions (Valenzuela-Fernandez A, et al. J Biol Chem. 277(18):15677, 2002).
Background: In a radioligand displacement assay an active substance lowers the binding of a labelled ligand.
For the molecule “[Mpa]Y[Lys(iPr)][dR][2Nal]GC[Lys(iPr)]G[2Nal]G-NH2 (disulfide 1-7)”, the Binding Kb was 0.29 nM and the IC50 was 0.95 nM.

Regarding B1, the “Binding Kb” value turned out to be 0.21 nM and the 50% inhibitory concentration (IC50) came out at 0.7 nM.

On to B2, for which the “Binding Kb” value stood at 0.25 nM and the 50% inhibitory concentration (IC50) is 0.84 nM.

B3: the “Binding Kb” value was found to be 0.28 nM and the IC50 turned out to be 0.92 nM.

B4: the “Binding Kb” value was found to be 7.3 nM and the IC50 was 24 nM.

As to B5, the “Binding Kb” value is over 1000 nM.

For B6, the “Binding Kb” value was found to be 0.13 nM and the IC50 was found to be 0.42 nM.

Turning to B7, the “Binding Kb” value is 0.17 nM and the half-inhibitory concentration (IC50) amounted to 0.56 nM.

As for B8, the “Binding Kb” value came to 0.27 nM and the IC50 was determined as 0.89 nM.

As to B9, the “Binding Kb” value worked out at 0.39 nM and the half-inhibitory concentration (IC50) stood at 1.3 nM.

Turning to B10, the “Binding Kb” value worked out at 0.19 nM and the IC50 amounted to 0.64 nM.

In the case of B11, the “Binding Kb” value turned out to be 0.99 nM and the IC50 worked out at 3.3 nM.

Turning to B12, the “Binding Kb” value turned out to be 2.5 nM and the IC50 turned out to be 8.2 nM.

Consider B13, for which the “Binding Kb” value came out at 0.21 nM and the half-inhibitory concentration (IC50) was found to be 0.71 nM.

B14: the “Binding Kb” value turned out to be 0.12 nM and the concentration for half-maximal inhibition (IC50) came to 0.4 nM.

Take B15: the “Binding Kb” value amounted to 0.15 nM and the half-inhibitory concentration (IC50) was determined as 0.48 nM.

B16: the “Binding Kb” value is 3.2 nM and the IC50 came out at 11 nM.

Turning to B17, the “Binding Kb” value turned out to be 0.39 nM and the half-inhibitory concentration (IC50) stood at 1.3 nM.

Regarding B18, the “Binding Kb” value is 1 nM and the concentration for half-maximal inhibition (IC50) is 3.4 nM.

(Values after patent US20240082346A1 (MAINLINE BIOSCIENCES SHANGHAI, published 2024).)
